Values of other authors in paper PMC5536120.

Experiments:
[1] = target: knob B peptide GHRP (Homo sapiens) (UniProt P02675)
[2] = target: Fibrin central fragment central region (knobs A) (Homo sapiens) (UniProt P02671)

Chain of UniProt P02675 (P02675 whole entry, looked up, the tested form may be a part): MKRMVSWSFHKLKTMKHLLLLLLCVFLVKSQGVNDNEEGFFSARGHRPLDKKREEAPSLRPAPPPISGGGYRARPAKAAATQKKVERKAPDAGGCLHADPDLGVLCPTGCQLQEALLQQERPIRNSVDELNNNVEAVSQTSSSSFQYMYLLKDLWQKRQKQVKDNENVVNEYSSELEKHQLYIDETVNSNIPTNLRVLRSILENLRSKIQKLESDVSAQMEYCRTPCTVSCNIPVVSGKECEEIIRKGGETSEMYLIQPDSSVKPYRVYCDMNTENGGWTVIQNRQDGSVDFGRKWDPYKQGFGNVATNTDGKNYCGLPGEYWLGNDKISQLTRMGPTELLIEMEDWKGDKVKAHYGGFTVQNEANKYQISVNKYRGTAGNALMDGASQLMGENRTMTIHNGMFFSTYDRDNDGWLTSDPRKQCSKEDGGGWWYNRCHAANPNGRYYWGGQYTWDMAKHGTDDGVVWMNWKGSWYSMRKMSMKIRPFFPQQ

## Fibrinogen (from UniProt P02671)
[1]
  Kd: 140 µM
[2]
  Kd: 5.8 µM
